We go through two molecules from paper PMC5442324, “Zinc is a potent and specific inhibitor of IFN-λ3 signalling” (Nature Communications, 2017).

The target of one data set is IFN-α (Roferon-A) (UniProt P01563). Nature of the data set: zinc IMAC resin binding and SDS-PAGE; 200 ng IFN-α or IFN-λ3 on IMAC-Select gel charged with ZnSO4, 4 °C, 50 mM NaH2PO4, 300 mM NaCl, pH 8.0; eluted with 100 mM EDTA; SDS-PAGE, SYPRO ruby; bands read as monomer and dimer.
Data set [1] deals with the molecule itself. Described as above.

For orientation: stoichiometry N means a count of units in the complex or per binding partner. The molecule “IFN-α (Roferon-A) (from UniProt P01563 24-188) (ligand)” came in with a stoichiometry N in the data set with IFN-α (Roferon-A) of 2.

B1: recombinant human IFN-λ3 (ligand, UniProt Q8IZI9 22-196, looked up)
chain: VPVARLRGALPDARGCHIAQFKSLSPQELQAFKRAKDALEESLLLKDCKCRSRLFPRTWDLRQLQVRERPVALEAELALTLKVLEATADTDPALGDVLDQPLHTLHHILSQLRACIQPQPTAGPRTRGRLHHWLHRLQEAPKKESPGCLEASVTFNLFRLLTRDLNCVASGDLCV
notes: IFN-λ3 (interferon lambda 3), human, recombinant, R&D Systems; (Cys169); also called interferon lambda 3; IFNL3; source: bought: R&D Systems
As to B1, the “stoichiometry N” value in data set [1] is 2.
